Assay in all cases: NMR titration; 1H,15N HSQC of 50 uM 15N-labelled FH domain, unlabelled CR3 added in trans (25 uM or 50 uM); 50 mM NaH2PO4/Na2HPO4 pH 6.5, 0.04% NaN3, 5 mM DTT; 25 C; read-out chemical shift perturbations and line broadening
Details in all cases: both partners purified

Test [1] has as its target T1, FOXO1 forkhead (FH) domain, amino acids 143 to 270 (human, UniProt Q12778 143-270).
T1 construct: human FOXO1 (Forkhead box O1), Uniprot Q12778, amino acids 143 to 270, forkhead domain; Uniformly 15N-labelled in the NMR titrations; Cloned into the vector pETM11-ZZ-His6 via NcoI/BamHI; also called FOXO1^FH; FOXO1 FH domain; source: E. coli BL21-DE3 Star, purified (Ni-NTA, TEV cleavage, second Ni-NTA, SEC)

The target in test [2] is T2, FOXO6 forkhead (FH) domain, amino acids 71 to 191 (human, UniProt A8MYZ6 71-191).
T2 construct: human FOXO6 (Forkhead box O6), Uniprot A8MYZ6, amino acids 71 to 191, forkhead domain; Uniformly 15N-labelled in the NMR titrations; Cloned into the vector pETM11-ZZ-His6 via NcoI/BamHI; also called FOXO6^FH; FOXO6 FH domain; source: E. coli BL21-DE3 Star, purified (Ni-NTA, TEV cleavage, second Ni-NTA, SEC)
T2 sequence (A8MYZ6 71-191): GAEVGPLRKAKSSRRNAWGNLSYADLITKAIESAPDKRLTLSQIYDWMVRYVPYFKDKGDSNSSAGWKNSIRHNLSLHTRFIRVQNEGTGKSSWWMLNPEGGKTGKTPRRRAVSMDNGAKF

The target of test [3] is T3, FOXO3 forkhead (FH) domain, amino acids 141 to 260 (human, UniProt O43524 141-260).
T3 construct: human FOXO3 (Forkhead box O3), Uniprot O43524, amino acids 141 to 260, forkhead domain; Uniformly 15N-labelled in the NMR titrations; Cloned into the vector pETM11-ZZ-His6 via NcoI/BamHI; also called FOXO3^FH; FOXO3 FH domain; source: E. coli BL21-DE3 Star, purified (Ni-NTA, TEV cleavage, second Ni-NTA, SEC)
T3 sequence (O43524 141-260): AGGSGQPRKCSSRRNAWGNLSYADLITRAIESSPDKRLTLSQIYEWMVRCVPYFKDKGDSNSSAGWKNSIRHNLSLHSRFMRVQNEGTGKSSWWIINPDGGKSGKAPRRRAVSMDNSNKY

This is an account of results in paper PMC9097636, “FOXO transcription factors differ in their dynamics and intra/intermolecular interactions” (Current Research in Structural Biology, 2022).

T1 sequence (Q12778 143-270): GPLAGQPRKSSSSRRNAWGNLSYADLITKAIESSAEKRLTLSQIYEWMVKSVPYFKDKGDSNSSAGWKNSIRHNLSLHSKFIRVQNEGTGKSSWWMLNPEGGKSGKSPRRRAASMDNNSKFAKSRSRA

B1: FOXO6 conserved region 3 (CR3, transactivation domain), amino acids 418 to 472 (domain or fragment, human, UniProt A8MYZ6 418-472, looked up)
chain: YAAAAAGPLGAAPDRFPADLDLDMFSGSLECDVESIILNDFMDSDEMDFNFDSAL
notes: human FOXO6, Uniprot A8MYZ6, amino acids 418 to 472, CR3; Unlabelled in the titrations; also called FOXO6^CR3; CR3 of FOXO6; source: E. coli BL21-DE3 Star, lysed in 6 M urea, purified (Ni-NTA, TEV cleavage, second Ni-NTA, SEC)
Consider B1, for which the binding result in test [1] and in test [2] was “binds” throughout.

B2: FOXO1 conserved region 3 (CR3, transactivation domain), amino acids 587 to 636 (domain or fragment, human, UniProt Q12778 587-636, looked up)
chain: YGRMGLLHQEKLPSDLDGMFIERLDCDMESIIRNDLMDGDTLDFNFDNVL
notes: human FOXO1, Uniprot Q12778, amino acids 587 to 636, CR3; Unlabelled in the titrations; also called FOXO1^CR3; CR3 of FOXO1; source: E. coli BL21-DE3 Star, lysed in 6 M urea, purified (Ni-NTA, TEV cleavage, second Ni-NTA, SEC)
Turning to B2, the binding result in test [1], in test [2] and in test [3] was “binds” throughout.
